Legend:
[1] = molecular target: T1, hNPR1-mFc:hANP or hNPR1-hFc:hANP complex (human, UniProt P01160 124-151); assay: SPR, mAb captured, 25C
T1 construct: also called human NPR1 complexed to ANP
Protocol: (§1) Equilibrium dissociation constant (KD) for different NPR1 reagents binding to purified anti-NPR1 monoclonal antibodies (mAbs) were determined using a real-time surface plasmon resonance based Biacore 4000 biosensor. All binding studies were performed in 10 mM HEPES, 150 mM NaCl, 3 mM EDTA, and 0.05% v/v Surfactant Tween-20, pH 7.4 (HBS-ET) running buffer at 25° C. and 37° C. The Biacore CM5 sensor chip surface was first derivatized by amine coupling with either mouse anti-human Fc specific mAb (GE Healthcare, #BR100839) or goat anti-human Fcy specific polyclonal antibody (Jackson ImmunoResearch Laboratories, #BR-1008-39) to capture anti-NPR1 mAbs.

hNPR1-mFc:hBNP complex [2] = molecular target: T2, hNPR1-mFc:hBNP complex (human, UniProt P16860 103-134); assay: SPR, mAb captured, 25C
T2 construct: also called human NPR1 complexed to BNP
Protocol: as §1

mfNPR1-mFc [3] = molecular target: T3, mfNPR1-mFc (monkey); assay: SPR, mAb captured, 25C
T3 construct: also called dimeric monkey NPR1
T3 chain: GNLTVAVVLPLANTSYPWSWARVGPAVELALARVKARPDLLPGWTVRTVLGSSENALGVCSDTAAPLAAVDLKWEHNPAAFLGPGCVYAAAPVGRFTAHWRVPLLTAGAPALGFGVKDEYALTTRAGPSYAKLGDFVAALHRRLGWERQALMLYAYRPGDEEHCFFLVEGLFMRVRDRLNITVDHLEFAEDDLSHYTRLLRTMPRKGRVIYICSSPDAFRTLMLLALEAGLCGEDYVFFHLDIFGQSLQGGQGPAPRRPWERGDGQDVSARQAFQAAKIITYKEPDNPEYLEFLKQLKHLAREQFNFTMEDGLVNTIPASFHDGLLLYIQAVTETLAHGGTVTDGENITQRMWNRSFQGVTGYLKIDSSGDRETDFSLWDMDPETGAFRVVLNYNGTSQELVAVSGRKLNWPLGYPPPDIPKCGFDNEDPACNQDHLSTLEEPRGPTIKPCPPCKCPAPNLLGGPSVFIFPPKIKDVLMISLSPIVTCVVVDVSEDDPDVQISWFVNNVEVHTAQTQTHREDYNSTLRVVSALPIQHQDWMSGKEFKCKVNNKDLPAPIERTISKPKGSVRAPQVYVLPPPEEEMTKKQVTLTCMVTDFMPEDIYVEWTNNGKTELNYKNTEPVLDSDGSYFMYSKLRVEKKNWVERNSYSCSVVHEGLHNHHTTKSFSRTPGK
Protocol: as §1

mfNPR1-mFc:hANP complex [4] = molecular target: T4, mfNPR1-mFc:hANP complex (monkey; human, UniProt P01160 124-151); assay: SPR, mAb captured, 25C
T4 construct: also called monkey NPR1 complexed to ANP
Protocol: as §1

mfNPR1-mFc:hBNP complex = molecular target: T5, mfNPR1-mFc:hBNP complex (monkey; human, UniProt P16860 103-134); assay: SPR, mAb captured, 25C
T5 construct: also called monkey NPR1 complexed to BNP
Protocol: as §1

[5] = molecular target: T1, hNPR1-mFc:hANP or hNPR1-hFc:hANP complex; assay: SPR, mAb captured, 37C
Protocol: as §1

hNPR1-mFc:hBNP complex [6] = molecular target: T2, hNPR1-mFc:hBNP complex; assay: SPR, mAb captured, 37C
Protocol: as §1

mfNPR1-mFc [7] = molecular target: T3, mfNPR1-mFc; assay: SPR, mAb captured, 37C
Protocol: as §1

mfNPR1-mFc:hANP complex [8] = molecular target: T4, mfNPR1-mFc:hANP complex; assay: SPR, mAb captured, 37C
Protocol: as §1

B1: mAb25508 (antibody, human IgG4, V domains shown)
VH: EVQLVESGGGVVRPGGSLRLSCAASGFNVDDYGMSWVRQIPGKGLEWISGINWNGGRIYYADSMKGRITISRDNAKNSLYLQMNSLRAEDTALYHCVRDQWLVRGLDYWGQGTLVTVSS
VL: DIQMTQSPSSLSASVGDRVTITCRASQGIYNYLAWFQQKPGKAPKSLIYAASSLQSGVPSKFSGSGSGTDFTLTISSLQPEDFATYYCQQYNTYPYTFGQGTKLEIK
[1]
  100 nM Ag Bound (RU): 199 RU
  Kd: 0.34 nM
  koff: 8.97e-05 s⁻¹
  kon: 264000 M⁻¹ s⁻¹
  t½: 2.15 h
hNPR1-mFc:hBNP complex [2]
  100 nM Ag Bound (RU): 200 RU
  Kd: 0.343 nM
  koff: 8.57e-05 s⁻¹
  kon: 250000 M⁻¹ s⁻¹
  t½: 2.24 h
mfNPR1-mFc [3]
  100 nM Ag Bound (RU): 230 RU
  Kd: 0.116 nM
  koff: 5.98e-05 s⁻¹
  kon: 515000 M⁻¹ s⁻¹
  t½: 3.22 h
mfNPR1-mFc:hANP complex [4]
  100 nM Ag Bound (RU): 224 RU
  Kd: 0.233 nM
  koff: 7.32e-05 s⁻¹
  kon: 314000 M⁻¹ s⁻¹
  t½: 2.63 h
mfNPR1-mFc:hBNP complex
  100 nM Ag Bound (RU): 229 RU
  Kd: 0.29 nM
  koff: 8.91e-05 s⁻¹
  kon: 308000 M⁻¹ s⁻¹
  t½: 2.16 h
[5]
  100 nM Ag Bound (RU): 230 RU
  Kd: 0.506 nM
  koff: 0.000148 s⁻¹
  kon: 293000 M⁻¹ s⁻¹
  t½: 1.3 h
hNPR1-mFc:hBNP complex [6]
  100 nM Ag Bound (RU): 236 RU
  Kd: 0.466 nM
  koff: 0.000164 s⁻¹
  kon: 352000 M⁻¹ s⁻¹
  t½: 1.17 h
mfNPR1-mFc [7]
  100 nM Ag Bound (RU): 268 RU
  Kd: 0.132 nM
  koff: 8.36e-05 s⁻¹
  kon: 634000 M⁻¹ s⁻¹
  t½: 2.3 h
mfNPR1-mFc:hANP complex [8]
  100 nM Ag Bound (RU): 262 RU
  Kd: 0.355 nM
  koff: 0.000146 s⁻¹
  kon: 411000 M⁻¹ s⁻¹
  t½: 1.32 h

B2: mAb25498 (antibody, human IgG4, V domains shown)
VH: QVQLVESGGGVVQPGRSLRLSCVASGFTFSSYGMVWVRQTPGKGLEWVAVIWHDGTNNYYADSVKGRFTISRDNSKNTLYLQMNSLRAEDTAVYYCAREPWLVRGYYYYAMDVWGQGTTVTVSS
VL: not shown
[1]
  100 nM Ag Bound (RU): 52 RU
  Kd: 6.93 nM
  koff: 0.000317 s⁻¹
  kon: 45800 M⁻¹ s⁻¹
  t½: 0.607 h
hNPR1-mFc:hBNP complex [2]
  100 nM Ag Bound (RU): 55 RU
  Kd: 5.28 nM
  koff: 0.000256 s⁻¹
  kon: 48500 M⁻¹ s⁻¹
  t½: 0.752 h
mfNPR1-mFc [3]
  100 nM Ag Bound (RU): 128 RU
  Kd: 2.45 nM
  koff: 0.000177 s⁻¹
  kon: 72000 M⁻¹ s⁻¹
  t½: 1.09 h
mfNPR1-mFc:hANP complex [4]
  100 nM Ag Bound (RU): 81 RU
  Kd: 2.68 nM
  koff: 0.000112 s⁻¹
  kon: 41900 M⁻¹ s⁻¹
  t½: 1.72 h
mfNPR1-mFc:hBNP complex
  100 nM Ag Bound (RU): 81 RU
  Kd: 2.53 nM
  koff: 0.000109 s⁻¹
  kon: 43200 M⁻¹ s⁻¹
  t½: 1.77 h
[5]
  100 nM Ag Bound (RU): 74 RU
  Kd: 13.6 nM
  koff: 0.00072 s⁻¹
  kon: 53000 M⁻¹ s⁻¹
  t½: 0.267 h
hNPR1-mFc:hBNP complex [6]
  100 nM Ag Bound (RU): 76 RU
  Kd: 17.9 nM
  koff: 0.000948 s⁻¹
  kon: 52900 M⁻¹ s⁻¹
  t½: 0.203 h
mfNPR1-mFc [7]
  100 nM Ag Bound (RU): 170 RU
  Kd: 4.06 nM
  koff: 0.000372 s⁻¹
  kon: 91600 M⁻¹ s⁻¹
  t½: 0.518 h
mfNPR1-mFc:hANP complex [8]
  100 nM Ag Bound (RU): 114 RU
  Kd: 8.89 nM
  koff: 0.000445 s⁻¹
  kon: 50100 M⁻¹ s⁻¹
  t½: 0.432 h

B3: mAb25497 (antibody, human IgG4, V domains shown)
VH: QVQLVQSGAEVKEPGASVKVSCKASGYTFTDYYIHWVRQAPGQGLEWMGWINLNSGGKNHAQKFQGRVTVTSDTSINTAYIELGRLRGDDTAVYYCSRGGGSHYYYYYHGMDVWGQGTTVTVSS
VL: DIQMTQSPSSLSASVGDRITITCRASHSIDSYLNWYQQKPGKAPKLLIYPASTLQSGVPSRFSGSGSGTDFTLTISSLQPEDSAIYYCQQSYSTPLTFGGGTKVEIK
[1]
  100 nM Ag Bound (RU): 59 RU
  Kd: 0.279 nM
  koff: 4.56e-05 s⁻¹
  kon: 163000 M⁻¹ s⁻¹
  t½: 4.22 h
hNPR1-mFc:hBNP complex [2]
  100 nM Ag Bound (RU): 59 RU
  Kd: 0.358 nM
  koff: 5.49e-05 s⁻¹
  kon: 153000 M⁻¹ s⁻¹
  t½: 3.51 h
mfNPR1-mFc [3]
  100 nM Ag Bound (RU): 76 RU
  Kd: 0.337 nM
  koff: 5.79e-05 s⁻¹
  kon: 172000 M⁻¹ s⁻¹
  t½: 3.32 h
mfNPR1-mFc:hANP complex [4]
  100 nM Ag Bound (RU): 95 RU
  Kd: 0.24 nM
  koff: 3.75e-05 s⁻¹
  kon: 156000 M⁻¹ s⁻¹
  t½: 5.13 h
mfNPR1-mFc:hBNP complex
  100 nM Ag Bound (RU): 93 RU
  Kd: 0.32 nM
  koff: 4.47e-05 s⁻¹
  kon: 140000 M⁻¹ s⁻¹
  t½: 4.31 h
[5]
  100 nM Ag Bound (RU): 60 RU
  Kd: 2.09 nM
  koff: 0.000102 s⁻¹
  kon: 48500 M⁻¹ s⁻¹
  t½: 1.9 h
hNPR1-mFc:hBNP complex [6]
  100 nM Ag Bound (RU): 59 RU
  Kd: 2.35 nM
  koff: 0.000116 s⁻¹
  kon: 49200 M⁻¹ s⁻¹
  t½: 1.66 h
mfNPR1-mFc [7]
  100 nM Ag Bound (RU): 79 RU
  Kd: 5.2 nM
  koff: 0.000221 s⁻¹
  kon: 42500 M⁻¹ s⁻¹
  t½: 0.872 h
mfNPR1-mFc:hANP complex [8]
  100 nM Ag Bound (RU): 102 RU
  Kd: 2.6 nM
  koff: 0.000152 s⁻¹
  kon: 58400 M⁻¹ s⁻¹
  t½: 1.27 h

Reference: US20240309103A1 (Regeneron, published 2024)
